Tests used:
GST-PhoP = biological target: T1, GST-PhoP (M. tuberculosis, UniProt P71814 1-247); assay: pull-down; conditions: both partners purified
T1 construct: PhoP, response regulator, M. tuberculosis; also called GST-tagged PhoP

His6-PhoP = biological target: T2, His6-PhoP (M. tuberculosis, UniProt P71814 1-247); assay: pull-down; conditions: both partners purified
T2 construct: PhoP, response regulator, M. tuberculosis, full length (247 amino acids); also called His-PhoP; not shown: His6, N-terminal, kept

B1: His6-tagged PrrBC (cytoplasmic region of PrrB comprising C-terminal residues 200 to 446) (domain or fragment)
chain: ASEAIEIAEAMRGMLQRIWNEQNRTKEALASARDFAAVSSHELRTPLTAMRTNLEVLSTLDLPDDQRKEVLNDVIRTQSRIEATLSALERLAQGELSTSDDHVPVDITDLLDRAAHDAARIYPDLDVSLVPSPTCIIVGLPAGLRLAVDNAIANAVKHGGATLVQLSAVSSRAGVEIAIDDNGSGVPEGERQVVFERFSRGSTASHSGSGLGLALVAQQAQLHGGTASLENSPLGGARLVLRLPGPS
notes: PrrB, sensor kinase, M. tuberculosis, cytoplasmic domain residues 200-446 (247 amino acids); also called His6-PrrBC; His-PrrBC; not shown: His6, N-terminal, kept
binding result (GST-PhoP): binds

B2: GST-PhoRC (domain or fragment)
chain: TAAAIGAGQLDRRVPQWHPRTEVGRLSLALNGMLAQIQRAVASAESSAEKARDSEDRMRQFITDASHELRTPLTTIRGFAELYRQGAARDVGMLLSRIESEASRMGLLVDDLLLLARLDAHRPLELCRVDLLALASDAAHDARAMDPKRRITLEVLDGPGTPEVLGDESRLRQVLRNLVANAIQHTPESADVTVRVGTEGDDAILEVADDGPGMSQEDALRVFERFYRADSSRARASGGTGLGLSIVDSLVAAHGGAVTVTTALGEGCCFRVSLPRVSDVDQLSLTPVVPGPP
notes: PhoR, sensor kinase, M. tuberculosis, cytoplasmic domain PhoRC, residues 193-485 (C-terminal 293 residues); also called GST-tagged PhoRC
binding result (His6-PhoP): binds

— PMC10723718 (PLOS Genetics, 2023)
